From US20030039970, “Method for prognosing cancer and the proteins involved” (published 2003)

Tests used:
TRAITS (TID-1/U19) [1] = molecular target: T1, TRAITS (TID-1/U19) (Rattus norvegicus, UniProt Q811X5 SEQ:1-262); assay: EMSA; complex competed by 5x, 25x, 125x cold T-wt; poly[dI-dC] present; conditions: tags: GST fusion (pGEX-2T, E. coli); label: 32P 5' end
Excerpt: (§1) The binding of GST-TRAITS fusion protein to labeled T-box containing DNA forms a DNA-protein complex (C), which can be competed in the presence of indicated fold (5×, 25×, or 125×) molar excess of cold T-wt but not by cold T-mut (ACTgTA). A non-specific complex (*) in the presence of GST-TRAITS was also formed in the presence of GST only. Labeled free DNA (F) was also indicated. […] NIH3T3 cells were transiently transfected with empty vector (PM) or vectors expressing the full-length rat TRAITS (residues 1-262 of SEQ ID NO: 14), its N-terminal (residues 1-113 of SEQ ID NO: 14), or its C-terminal (residues 114-262 of SEQ ID NO: 14) plus pG5CAT reporter and pSV-β-gal for normalization. Assays were performed after 24 hours of transfection. The fold activation of CAT reporter is shown with S.E.M. Assays were performed in triplicate in two separate experiments.
(§2) T-wt: (5′-[…] GAAGCTTACGTCGCG-3′ SEQ ID NO: 33) and T-mut: (5′-[…] CGAAGCTTACGTCGCG-3′ SEQ ID NO: 34) were synthesized and amplified by PCR. T4 polynucleotide kinase (Promega) was used to label T-wt & T-mut by [γ-³²P] ATP (NEN). Recombinant GST-TRAITS fusion protein was incubated with […] poly [dI-dC] and EMSA was performed according to the protocol provided by Gel Shift Assay System (Promega).

TRAITS (TID-1/U19) [2] = molecular target: T1, TRAITS (TID-1/U19); assay: competition; cold T-mut up to 125x molar excess does not compete for labeled T-wt complex; legend prints ACTgTA but sequence has ACGTTA; conditions: tags: GST fusion (pGEX-2T, E. coli)
Excerpt: as §1, §2

T1 sequence (Q811X5 whole entry, the tested form may be a part): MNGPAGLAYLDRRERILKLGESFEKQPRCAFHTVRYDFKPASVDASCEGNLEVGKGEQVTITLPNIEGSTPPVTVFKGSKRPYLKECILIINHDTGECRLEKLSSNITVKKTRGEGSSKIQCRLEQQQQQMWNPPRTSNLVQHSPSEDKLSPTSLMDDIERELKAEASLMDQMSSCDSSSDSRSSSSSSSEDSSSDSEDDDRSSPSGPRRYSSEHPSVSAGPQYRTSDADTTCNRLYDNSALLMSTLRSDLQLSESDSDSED

B1: T-wt (T-box ACTTTA) (dsDNA)
DNA 1: GTCTGTCTGGATCCGAGGTGAGTACTGACTTTACACACGTCTTCCGAAGCTTACGTCGCG
DNA 2: CGCGACGTAAGCTTCGGAAGACGTGTGTAAAGTCAGTACTCACCTCGGATCCAGACAGAC
TRAITS (TID-1/U19) [1]
  binding result: binds

B2: T-mut (dsDNA)
DNA 1: GTCTGTCTGGATCCGAGGTGAGTACTGACGTTACACACGTCTTCCGAAGCTTACGTCGCG
DNA 2: CGCGACGTAAGCTTCGGAAGACGTGTGTAACGTCAGTACTCACCTCGGATCCAGACAGAC
TRAITS (TID-1/U19) [2]
  binding result: no binding
